The target in this assay is RBD domain derived from the Omicron strain (B.1.1.529 strain) (SARS-CoV-2 Omicron strain (B.1.1.529)) (UniProt P0DTC2). Description: SPR (Biacore T200), as in Example 4: antibody on the chip, RBD as analyte. Background: SPR reads the build-up and loss of mass on a sensor chip optically.

The Kd is the equilibrium constant for the complex coming apart. A high value points to lower affinity. For S309 (antibody), the Kd turned out to be 2.1 nM.

For the origin of these results see patent WO2023002944A1.
